Source: article PMC7125119, “An oncopeptide regulates m6A recognition by the m6A reader IGF2BP1 and tumorigenesis”

Target: IGF2BP1-Flag (recombinant);RBRP-Flag WT (Homo sapiens?;Homo sapiens, UniProt Q9NZI8;C0HM01 1-577;1-71, |)
Assay: EMSA; RBRP WT increases IGF2BP1 binding; Pull-down: 1 nmol biotin-RNA on streptavidin-agarose, nuclear extract, 30 C 30 min, immunoblot. EMSA: LightShift kit, 20 pmol RNA, 6 ug IGF2BP1-Flag, 2 ug RBRP, room temperature 30 min, then 0.2% glutaraldehyde (1 ul) on ice 15 min, 6% TBE gel; salt and binding pH not stated
Conditions: protein: recombinant;recombinant; label: biotin 5'; single strand

IGF2BP1-Flag (recombinant);RBRP-Flag WT, sequence (Q9NZI8 whole entry, chain 1 of 2): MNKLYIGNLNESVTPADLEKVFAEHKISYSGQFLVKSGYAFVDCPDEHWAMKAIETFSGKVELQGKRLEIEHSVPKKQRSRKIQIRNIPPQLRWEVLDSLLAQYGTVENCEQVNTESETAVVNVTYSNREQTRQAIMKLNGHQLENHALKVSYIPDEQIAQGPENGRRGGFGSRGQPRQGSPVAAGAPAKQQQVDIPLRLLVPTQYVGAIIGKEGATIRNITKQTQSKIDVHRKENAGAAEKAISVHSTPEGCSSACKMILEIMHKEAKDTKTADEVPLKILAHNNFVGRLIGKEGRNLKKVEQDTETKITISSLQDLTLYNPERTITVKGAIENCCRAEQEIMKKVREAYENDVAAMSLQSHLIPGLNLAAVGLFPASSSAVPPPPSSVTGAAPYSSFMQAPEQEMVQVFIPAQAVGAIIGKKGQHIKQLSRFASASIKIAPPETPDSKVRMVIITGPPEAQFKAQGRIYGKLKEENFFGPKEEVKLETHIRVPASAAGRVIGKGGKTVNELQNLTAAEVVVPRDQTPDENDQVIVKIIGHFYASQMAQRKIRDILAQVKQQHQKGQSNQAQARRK
IGF2BP1-Flag (recombinant);RBRP-Flag WT, sequence (C0HM01 whole entry, chain 2 of 2): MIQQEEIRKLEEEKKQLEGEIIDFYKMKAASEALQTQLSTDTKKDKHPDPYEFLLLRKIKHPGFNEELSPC

B1: ss-m6A (ssRNA)
RNA: CGUCUCGGACUCGGACUGCU
modifications: m6A at 9 and 15
B1: binds.
